This note sets out measurements from IntAct's records for PubMed 17377532.

To fix the notation:
B1: Forkhead box protein P3 (Mus musculus), Q99JB6 (parent)
chain: MPNPRPAKPMAPSLALGPSPGVLPSWKTAPKGSELLGTRGSGGPFQGRDLRSGAHTSSSLNPLPPSQLQLPTVPLVMVAPSGARLGPSPHLQALLQDRPHFMHQLSTVDAHAQTPVLQVRPLDNPAMISLPPPSAATGVFSLKARPGLPPGINVASLEWVSREPALLCTFPRSGTPRKDSNLLAAPQGSYPLLANGVCKWPGCEKVFEEPEEFLKHCQADHLLDEKGKAQCLLQREVVQSLEQQLELEKEKLGAMQAHLAGKMALAKAPSVASMDKSSCCIVATSTQGSVLPAWSAPREAPDGGLFAVRRHLWGSHGNSSFPEFFHNMDYFKYHNMRPPFTYATLIRWAILEAPERQRTLNEIYHWFTRMFAYFRNHPATWKNAIRHNLSLHKCFVRVESEKGAVWTVDEFEFRKKRSQRPNKCSNPCP

The variants in the experiment derive from B1. Particulars: with runx1_mouse Runx1, Q03347.
Chain of runx1_mouse Runx1, Q03347 (Q03347 whole entry): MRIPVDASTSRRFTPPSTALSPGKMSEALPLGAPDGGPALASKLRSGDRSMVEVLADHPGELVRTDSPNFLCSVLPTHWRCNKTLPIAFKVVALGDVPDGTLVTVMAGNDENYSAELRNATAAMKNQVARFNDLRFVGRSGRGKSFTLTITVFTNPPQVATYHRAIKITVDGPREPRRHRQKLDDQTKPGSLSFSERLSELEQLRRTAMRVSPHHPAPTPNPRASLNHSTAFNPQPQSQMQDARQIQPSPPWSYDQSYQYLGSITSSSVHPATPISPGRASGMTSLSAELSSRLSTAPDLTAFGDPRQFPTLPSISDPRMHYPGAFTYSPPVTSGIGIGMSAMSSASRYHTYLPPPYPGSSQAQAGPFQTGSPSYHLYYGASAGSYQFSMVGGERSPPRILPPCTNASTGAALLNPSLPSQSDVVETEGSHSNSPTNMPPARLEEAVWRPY
Take MPNPRPAKPMAPSLALGPSPGVLPSWKTAPKGSELLGTRGSGGPFQGRDLRSGAHTSSSLNPLPPSQLQLPTVPLVMVAPSGARLGPSPHLQALLQDRPHFMHQLSTVDAHAQTPVLQVRPLDNPAMISLPPPSAATGVFSLKARPGLPPGINVASLEWVSREPALLCTFPRSGTPRKDSNLLAAPQGSYPLLANGVCKWPGCEKVFEEPEEFLKHCQADHLLDEKGKAQCLLQREVVQSLEQQLELEKEKLGAMQAHLAGKMALAKAPSVASMDKSSCCIVATSTQGSVLPAWSAPREAPDGGLFAVRRHLWGSHGNSSFPEFFHNMVHFLYHNMRPPFTYATLIRWAILEAPERQRTLNEIYHWFTRMFAYFRNHPATWKNAIRHNLSLHKCFVRVESEKGAVWTVDEFEFRKKRSQRPNKCSNPCP [D329V;Y330H;K332L]: the “effect of a mutation on the interaction” value is listed as “disrupting interaction strength”.

On to MPNPRPAKPMAPSLALGPSPGVLPSWKTAPKGSELLGTRGSGGPFQGRDLRSGAHTSSSLNPLPPSQLQLPTVPLVMVAPSGARLGPSPHLQALLQDRPHFMHQLSTVDAHAQTPVLQVRPLDNPAMISLPPPSAATGVFSLKARPGLPPGINVASLEWVSREPALLCTFPRSGTPRKDSNLLAAPQGSYPLLANGVCKWPGCEKVFEEPEEFLKHCQADHLLDEKGKAQCLLQREVVQSLEQQLELEKEKLGAMQAHLAGKMALAKAPSVASMDKSSCCIVATSTQGSVLPAWSAPREAPDGGLFAVRRHLWGSHGNSSFPEFFHNMVHFKYHNMRPPFTYATLIRWAILEAPERQRTLNEIYHWFTRMFAYFRNHPATWKNAIRHNLSLHKCFVRVESEKGAVWTVDEFEFRKKRSQRPNKCSNPCP [D329V;Y330H], for which the “effect of a mutation on the interaction” value was “decreasing interaction strength”.
